# Measured values as given in patent EP4335870A1 (NantCell, Inc., dated 2024).
# Substitutions are numbered along the chain they refer to.
# B1: N-612-056 (antibody, V domains shown)
# VH: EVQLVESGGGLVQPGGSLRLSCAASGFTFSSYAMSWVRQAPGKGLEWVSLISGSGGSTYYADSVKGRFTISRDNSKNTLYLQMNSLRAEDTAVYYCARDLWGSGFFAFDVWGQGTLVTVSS
# VL: DIQMTQSPSSLSASVGDRVTITCQASQDISNYLNWYQQKPGKAPKLLIYDASNLETGVPSRFSGSGSGTDFTFTISSLQPEDIATYYCQQDAGTPLTFGQGTKVEIK
# B2: N-612-056-21 (antibody, V domains shown)
# VH: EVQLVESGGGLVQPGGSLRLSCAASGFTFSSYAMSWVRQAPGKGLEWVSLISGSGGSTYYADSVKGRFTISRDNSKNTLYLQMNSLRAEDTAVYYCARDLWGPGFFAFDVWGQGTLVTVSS
# VL: B1 VL
# B3: N-612-017 (antibody, V domains shown)
# VH: EVQLVESGGGLVQPGGSLRLSCAASGFTFSSYAMHWVRQAPGKGLEWVSAIWGSGSNTYYADSVKGRFTISRDNSKNTLYLQMNSLRAEDTAVYYCARGRDLAAFTKTAFDVWGQGTLVTVSS
# VL: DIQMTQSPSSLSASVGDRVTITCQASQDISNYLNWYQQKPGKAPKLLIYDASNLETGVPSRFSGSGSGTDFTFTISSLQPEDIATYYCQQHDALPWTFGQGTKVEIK
# B4: N-612-017-5B05 SV (antibody, V domains shown)
# VH: B3 VH with A33V, R72V, R100E, D101E
# VL: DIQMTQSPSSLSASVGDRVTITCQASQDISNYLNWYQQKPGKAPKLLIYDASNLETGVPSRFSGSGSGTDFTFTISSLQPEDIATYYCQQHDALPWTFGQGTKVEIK
# B5: N-612-004 (antibody, V domains shown)
# VH: EVQLVESGGGLVQPGGSLRLSCAASGFTFSSYYMHWVRQAPGKGLEWVSAISGSGGYTYYADSVKGRFTISRDNSKNTLYLQMNSLRAEDTAVYYCARDRDHAYDWGFDVWGQGTLVTVSS
# VL: B1 VL with D91W, G93D, T94W
# B6: N-612-014 (antibody, V domains shown)
# VH: EVQLVESGGGLVQPGGSLRLSCAASGFTFSSYAMTWVRQAPGKGLEWVSYISGSGGGTYYADSVKGRFTISRDNSKNTLYLQMNSLRAEDTAVYYCARDRWASGWLAFDVWGQGTLVTVSS
# VL: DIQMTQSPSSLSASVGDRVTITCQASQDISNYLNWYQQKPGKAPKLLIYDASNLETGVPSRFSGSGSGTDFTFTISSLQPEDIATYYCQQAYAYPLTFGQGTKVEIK
# B7: N-612-007 (antibody, V domains shown)
# VH: EVQLVESGGGLVQPGGSLRLSCAASGFTFSNYAMHWVRQAPGKGLEWVSAISGNGGSTGYADSVKGRFTISRDNSKNTLYLQMNSLRAEDTAVYYCARDRWYVKNAFDVWGQGTLVTVSS
# VL: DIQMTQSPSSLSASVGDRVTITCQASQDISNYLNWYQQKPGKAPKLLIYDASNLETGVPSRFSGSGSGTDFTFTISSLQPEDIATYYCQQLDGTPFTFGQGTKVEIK
# Molecular target: SARS-CoV-2 Spike receptor binding domain (RBD), wildtype (SARS-CoV-2, UniProt P0DTC2 319-541)
# Experiment: not given
row,Binder,Kd [nM]
1,B1,2.98
2,B2,0.41
3,B3,5.29
4,B4,6.62

# Molecular target: SARS-CoV-2 Spike protein on live SARS-CoV-2 (SARS-CoV-2, UniProt P0DTC2 14-1273)
# Experiment: cell-based or functional assay
row,Binder,live SARS-CoV-2 neutralization IC50 [mg/L]
1,B5,0.194
2,B1,0.855
3,B6,0.00791
4,B7,0.0452
5,B3,0.0756
